Results taken from US20250295799A1 (Zymeworks, published 2025).
Positions count from the first letter of the chain named.

B1: H18L6_LC_G34E mAb, v40204 (antibody, human IgG1, kappa, V domains shown)
VH: QVQLVQSGAEVKKPGSSVKVSCKASGYTFTDYEMHWVKQAPGHGLEWIGAIDPETGDTAYNQKFKGKATLTADTSTSTAYMELSSLRSEDTAVYYCTRYFSFAYWGQGTLVTVSS
VL: EIVLTQSPATLSLSPGERATISCRSSQSLRHSNENTYLQWYQQKPGQAPRLLIYKVSNRFSGVPARFSGSGSGTDFTLTISSLEPEDFAVYFCYQSKHVPYTFGGGTKVEIKR
notes: M3-H18L6 chains with the stated light chain point mutation, IgG1/kappa
B2: H18L6_LC_G34K mAb, v40207 (antibody, human IgG1, kappa, V domains shown)
VH: B1 VH
VL: B1 VL with E34K
notes: Full-size IgG1/kappa
B3: H18L6_LC_G34R mAb, v40206 (antibody, human IgG1, kappa, V domains shown)
VH: B1 VH
VL: B1 VL with E34R
notes: Full-size IgG1/kappa
B4: H18L6_LC_G34Q mAb, v40208 (antibody, human IgG1, kappa, V domains shown)
VH: B1 VH
VL: B1 VL with E34Q
notes: Full-size IgG1/kappa

What follows are binders tested against T1, human glypican-3 (GPC3) (human, UniProt P51654 25-554) (assay: flow cytometry on JHH-7 cells (GPC3-high);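 further: antibody binding at 4 °C for 24 h, detected with anti-human AF647 secondary, geometric mean fluorescence of live cells versus antibody concentration, fitted as specific binding with Hill slope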).
T1 construct: Endogenous on JHH-7, JHH-5, HepG2 and NCI-H446 tumour cells, or transiently expressed on CHO-S cells from a pTT5 plasmid; also called hGPC3; huGPC3
Wherever JHH-5 Internalization (MFI) is given: test concentration or dose not given here.
Wherever JHH-5 Internalization (MFI), Day 0 in mouse plasma is given: test concentration or dose not given here.
Wherever JHH-5 Internalization (MFI), Day 14 in mouse plasma is given: test concentration or dose not given here.
Wherever JHH-7 Internalization (MFI) is given: test concentration or dose not given here.
Wherever JHH-7 Internalization (MFI), Day 0 in mouse plasma is given: test concentration or dose not given here.
Wherever JHH-7 Internalization (MFI), Day 14 in mouse plasma is given: test concentration or dose not given here.

| Binder | Bmax (MFI) | Kd [nM] |
| --- | --- | --- |
| B1 | 12500 | 0.42 |
| B2 | 12200 | 0.39 |
| B3 | 12500 | 0.34 |
| B4 | 11600 | 0.44 |

What follows are binders tested against T2, cynomolgus monkey glypican-3 (GPC3) (cynomolgus monkey, UniProt A5A6P7 25-554 (Pan troglodytes entry)) (assay: flow cytometry on CHO-S cells transfected with cynomolgus GPC3;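 further: antibodies incubated 24 h at 4 °C with transiently transfected cells, binding read as AF647 geometric mean fluorescence of live cells, GFP-transfected cells as negative control, Hill-slope specific-binding fit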).
T2 construct: Transiently expressed on CHO-S cells; also called cynoGPC3; CynoGPC3-CHO
Procedure: (§1) Briefly, CHO—S cells were transiently transfected for −24 hours with a pTT5-based expression plasmid encoding human GPC3 or cynomolgus monkey GPC3, 0.5 μg DNA per 1 million cells, using the Neon™ Transfection System (Thermo Fisher Scientific Corp., Waltham, MA), to transiently express human or cynomolgus monkey GPC3. Cells transfected with GFP were used as negative transfection controls. Following transfection, cells were seeded at 50,000 cells/well in V-bottom 96-well plates and treated with antibody for 24 hours at 4° C. to prevent internalization. […] Following incubation and washing, fluorescence was detected by flow cytometry on a BD LSRFortessa™ Cell Analyzer (BD Biosciences, Franklin Lake, NJ) with 1,000 minimum events collected per well. AF647/APC-A GeoMean (fluorescence signal geometric mean, proportional to anti-Human AF647 binding) in live cell population was plotted against antibody concentration using GraphPad Prism Version 9 (GraphPad Software, San Diego, CA). The Bmax and Kd values were derived from the “Specific binding with Hill slope” nonlinear regression curve fit in GraphPad Prism Version 9.

| Binder | Bmax (MFI) | Kd [nM] |
| --- | --- | --- |
| B1 | 2870 | 0.15 |
| B2 | 2930 | 0.16 |
| B3 | 2850 | 0.13 |
| B4 | 2820 | 0.15 |

These binders were tested against T1, human glypican-3 (GPC3) (assay: flow cytometry on JHH-7 cells; antibody in mouse plasma, day 0).
Procedure: (§2) For binding cells were seeded at 50,000 cells/well in V-bottom 96-well plates and treated with antibody for 24 hours at 4° C. to prevent internalization. […] Following incubation and washing, fluorescence was detected by flow cytometry on a BD LSRFortessa™ Cell Analyzer (BD Biosciences, Franklin Lake, NJ) with 1,000 minimum events collected per well. AF647/APC-A GeoMean (fluorescence signal geometric mean, proportional to anti-Human AF647 binding) in live cell population was plotted against antibody concentration using GraphPad Prism Version 9 (GraphPad Software, San Diego, CA). The Bmax, Curve Hill Slope (h) and Kd values were derived from the “Specific binding with Hill slope” nonlinear regression curve fit in GraphPad Prism Version 9.

| Binder | Bmax (MFI) | Kd [nM] |
| --- | --- | --- |
| B1 | 8500 | 0.26 |
| B2 | 9620 | 0.16 |
| B3 | 9390 | 0.15 |
| B4 | 8910 | 0.32 |

These binders were tested against T1, human glypican-3 (GPC3) (assay: flow cytometry on JHH-5 cells; antibody after 14 days in mouse plasma at 37 C).
Procedure: as §2

| Binder | Bmax (MFI) | Kd [nM] |
| --- | --- | --- |
| B1 | 4460 | 0.26 |
| B2 | 6460 | 0.26 |
| B3 | 5320 | 0.21 |
| B4 | 5640 | 0.15 |

The binders below were run against T1, human glypican-3 (GPC3) (assay: flow cytometry on JHH-5 cells (GPC3-mid);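 further: antibody binding to cells at 4 °C for 24 h, detected with anti-human AF647 as geometric mean fluorescence of live cells versus antibody concentration, fitted by specific binding with Hill slope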).
Procedure: Briefly, cells were seeded at 50,000 cells/well in V-bottom 96-well plates and treated with antibody for 24 hours at 4° C. to prevent internalization. […] Following incubation and washing, fluorescence was detected by flow cytometry on a BD LSRFortessa™ Cell Analyzer (BD Biosciences, Franklin Lake, NJ) with 1,000 minimum events collected per well. AF647/APC-A GeoMean (fluorescence signal geometric mean, proportional to anti-Human AF647 binding) in live cell population was plotted against antibody concentration using GraphPad Prism Version 9 (GraphPad Software, San Diego, CA). The Bmax, Curve Hill Slope (h) and Kd values were derived from the “Specific binding with Hill slope” nonlinear regression curve fit in GraphPad Prism Version 9.

| Binder | Bmax (MFI) | Kd [nM] |
| --- | --- | --- |
| B1 | 4140 | 0.17 |
| B2 | 4740 | 0.2 |
| B3 | 4910 | 0.19 |
| B4 | 4360 | 0.16 |

What follows are binders tested against T1, human glypican-3 (GPC3) (assay: flow cytometry on CHO-S cells transfected with human GPC3;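 further: antibody binding to transiently transfected CHO-S cells after 24 hours at 4 °C, read as geometric mean fluorescence of anti-human AF647 in live cells, fitted against antibody concentration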).
Procedure: as §1

| Binder | Bmax (MFI) | Kd [nM] |
| --- | --- | --- |
| B1 | 2260 | 0.11 |
| B2 | 2330 | 0.11 |
| B3 | 2450 | 0.1 |
| B4 | 2280 | 0.11 |

These binders were tested against T1, human glypican-3 (GPC3) (assay: cell-based or functional assay).

| Binder | JHH-5 Internalization (MFI), Day 0 in mouse plasma [MFI] | JHH-5 Internalization (MFI), Day 14 in mouse plasma [MFI] | JHH-7 Internalization (MFI), Day 0 in mouse plasma [MFI] | JHH-7 Internalization (MFI), Day 14 in mouse plasma [MFI] |
| --- | --- | --- | --- | --- |
| B1 | 7100 | 6040 | 91 | 73 |
| B2 | 12800 | 11400 | 143 | 115 |
| B3 | 13300 | 11100 | 144 | 115 |
| B4 | 10500 | 9980 | 131 | 106 |

What follows are binders tested against T1, human glypican-3 (GPC3) (assay: flow cytometry on JHH-5 cells; antibody in mouse plasma, day 0).
Procedure: as §2

| Binder | Bmax (MFI) | Kd [nM] |
| --- | --- | --- |
| B1 | 4760 | 0.11 |
| B2 | 5490 | 0.07 |
| B3 | 5450 | 0.07 |
| B4 | 4730 | 0.11 |

Target: T1, human glypican-3 (GPC3)
Experiment: cell-based or functional assay
Remark: another data set of the same source

| Binder | JHH-5 Internalization (MFI) | JHH-7 Internalization (MFI) |
| --- | --- | --- |
| B1 | 5770 | 4410 |
| B2 | 10000 | 8760 |
| B3 | 10700 | 9240 |
| B4 | 9510 | 8920 |

What follows are binders tested against T1, human glypican-3 (GPC3) (assay: flow cytometry on JHH-7 cells; antibody after 14 days in mouse plasma at 37 C).
Procedure: as §2

| Binder | Bmax (MFI) | Kd [nM] |
| --- | --- | --- |
| B1 | 8430 | 0.67 |
| B2 | 10900 | 0.31 |
| B3 | 9710 | 0.39 |
| B4 | 11000 | 0.23 |
